In paper PMC6172220, “Calcineurin B homologous protein 3 binds with high affinity to the CHP binding domain of the human sodium/proton exchanger NHE1” (Scientific Reports, 2006):
Where “and” joins values, the source holds several entries; their conditions need not be identical. Identical values can stand only once.

B1: MBP-CBD: CHP-binding region of human NHE1 (residues 503-545) fused to maltose-binding protein at its amino-terminus (domain or fragment, UniProt P19634 503-545, looked up)
chain: VDLLAVKKKQETKRSINEEIHTQFLDHLLTGIEDICGHYGHHH
notes: also called MBP-CBD^NHE1; NHE1-CBD; source: E. coli BL21 (DE3), purified (IMAC, SEC on Superdex 200); not shown: MBP, N-terminal, kept; His8, C-terminal, kept
B2: MBP-CBD: CHP-binding region of human NHE1 (residues 503-545) fused to maltose-binding protein (domain or fragment, UniProt P19634 503-545, looked up)
chain: VDLLAVKKKQETKRSINEEIHTQFLDHLLTGIEDICGHYGHHH
notes: The TEV site is printed without Tyr; No site for removal of the C-terminal His8 is described; also called MBP-CBD^NHE1; NHE1-CBD; source: E. coli BL21 (DE3), purified (IMAC, SEC); not shown: MBP (E. coli malE; UniProtKB P0AEX9 residues 27-393), N-terminal, kept
B3: human calcineurin B homologous protein 3 (CHP3), hexa-histidine tagged (natural protein, UniProt Q96BS2 2-214, looked up)
chain: GAAHSASEEVRELEGKTGFSSDQIEQLHRRFKQLSGDQPTIRKENFNNVPDLELNPIRSKIVRAFFDNRNLRKGPSGLADEINFEDFLTIMSYFRPIDTTMDEEQVELSRKEKLRFLFHMYDSDSDGRITLEEYRNVVEELLSGNPHIEKESARSIADGAMMEAASVCMGQMEPDQVYEGITFEDFLKIWQGIDIETKMHVRFLNMETMALCH
B4: human calcineurin B homologous protein 3 (CHP3), hexa-histidine tagged (natural protein, UniProt Q96BS2 2-214, looked up)
chain: GAAHSASEEVRELEGKTGFSSDQIEQLHRRFKQLSGDQPTIRKENFNNVPDLELNPIRSKIVRAFFDNRNLRKGPSGLADEINFEDFLTIMSYFRPIDTTMDEEQVELSRKEKLRFLFHMYDSDSDGRITLEEYRNVVEELLSGNPHIEKESARSIADGAMMEAASVCMGQMEPDQVYEGITFEDFLKIWQGIDIETKMHVRFLNMETMALCH
modifications: fluorescent label NT647, randomly attached, labelling efficiency about 30% (MST only)

How the values were obtained:
Details in all cases: both partners purified
[1] = target: B3; assay: ITC; the same titrations (CHP3 in the syringe, MBP-CBD in the cell, 25 °C, ITC buffer pH 7.2) refitted one by one after the triple-shift correction: corrected active concentrations of CHP3 and MBP-CBD, dH fixed to the average of the raw fits, n = 1 by the correction
[2] = target: B3; assay: ITC; CHP3 (nominal 200 uM) in the syringe injected into MBP-CBD (nominal 20 uM) in the cell, 57 injections, 25 °C; 20 mM HEPES, 150 mM NaCl, 10 mM MgCl2, 5 mM TCEP, pH 7.2; biological triplicates, raw data: each data set fitted freely (KD, dH, n, offset)
[3] = target: B4; assay: ITC; 200 uM CHP3 in the syringe injected into 20 uM MBP-CBD in the cell, 57 injections, 25 °C; 20 mM HEPES, 150 mM NaCl, 10 mM MgCl2, 5 mM TCEP, pH 7.2; global fit of three concentration-corrected biological replicates assuming n = 1
[4] = target: B4; assay: MST; NT647-labelled CHP3 at 10 nM, MBP-CBD titrated in 16 steps of 1:1 dilution; 20 mM HEPES, 150 mM NaCl, 0.05% Tween-20, 10 mM MgCl2, 5 mM TCEP, pH 7.2; 22 °C; bimolecular binding model; three biological replicates of five technical replicates each
[5] = target: B1; assay: ITC; the same titrations (CHP3 in the syringe, MBP-CBD in the cell, 25 °C, ITC buffer pH 7.2) refitted one by one after the triple-shift correction: corrected active concentrations of CHP3 and MBP-CBD, dH fixed to the average of the raw fits, n = 1 by the correction
[6] = target: B1; assay: ITC; CHP3 (nominal 200 uM) in the syringe injected into MBP-CBD (nominal 20 uM) in the cell, 57 injections, 25 °C; 20 mM HEPES, 150 mM NaCl, 10 mM MgCl2, 5 mM TCEP, pH 7.2; biological triplicates, raw data: each data set fitted freely (KD, dH, n, offset)
[7] = target: B2; assay: SEC; analytical SEC, Superdex 200 10/300 GL; 20 uM samples mixed equimolar (250 ul each); 20 mM HEPES, 150 mM NaCl, 1 mM TCEP, pH 7.2; peak fractions checked by SDS-PAGE

Binder: B1
Kd [1]: 3.1 nM and 2.1 nM and 5.1 nM and 3.4 nM
Kd [2]: 3 nM and 2.4 nM and 4.5 nM and 3.3 nM

Binder: B2
Kd [3]: 3 nM
Kd [4]: 62.7 nM and 54.8 nM and 49 nM and 55.5 nM

Binder: B3
stoichiometry N [5]: 1
stoichiometry N [6]: 0.97 and 1.2 and 1.1 and 1.09

Binder: B4
stoichiometry N [7]: 1
